Experiment: soluble on expression in E. coli; label from the status in PepcDB or PDB records

Sequence	soluble on expression in E. coli
SMQQLVLDPGFLGLEPLLDLLLGVHQELGASELAQDKYVADFLQWAEPIVVRLKEVRLQRDDFEILKVIGRGAFSEVAVVKMKQTGQVYAMKIMNKWDMLKRGEVSCFREERDVLVNGDRRWITQLHFAFQDENYLYLVMEYYVGGDLLTLLSKFGERIPAEMARFYLAEIVMAIDSVHRLGYVHRDIKPDNILLDRCGHIRLADFGSCLKLRADGTVRSLVAVGTPDYLSPEILQAVGGGPGTGSYGPECDWWALGVFAYEMFYGQTPFYADSTAETYGKIVHYKEHLSLPLVDEGVPEEARDFIQRLLCPPETRLGRGGAGDFRTHPFFFGLDWDGLRDSVPPFTPDFEGATDTCNFDLVEDGLTAMVSGGGETLSDIREGAPLGVHLPFVGYSYSCMALRDSEVPGPTP	soluble
MGSDKIHHHHHHLAVMPFSPDQIIRPEILALSAYHVPPACGMIKLDAMENPYPLPPELRDEIAKLAGETPVNRYPDPDAAALKAALREALSIPDGMDIMLGNGSDEIIQIIALACGKPGAVLMSVEPAFVMFRMIATFASMNYVGVPLHPDFSLDAEAMLAAIARYQPAVIFIAYPNNPTGNLFDAVEISRIIDAAPGVVVVDEAYHAFADASFMDKLAHHPNLLLMRTLSKLGMAGLRLGLLAGKPEWLRQLEKLRLPYNVGIVTQRIAEKLLQHRDVLLQQAAAIKLERSSMSRRLAELEGIEVFPTDANFILFRLNQDHKATQVFQELKQRGILVKNLDGAHPLLKNCLRVTVGMPDENAQFLEVLQTLLVKVEAKA	not soluble
RSPYDMEVIGQTIDDAAGEAFDKCAKVMGLGYPGGPIVNKLASEGNPDAFRFARPHVSGYDYSFSGLKTSFLYTLRDKLAEDPDFIEKNKADLCASLQHTVIDILMKKLRQAAKDHSIKQVALAGGVSANTGLRDAFHDHARRYGWTVFIPKFAYTTDNAAMVAISGYYKYLQGDFCPIDAVPFSRITV	not soluble
MGSDKIHHHHHHMKHTLLIKDWLYSFLSLWFPRCCVVCGGSLAKGEECICTMCNINLPRTDYHLRKDNPVEKLFWGKFPLERATSFFFYRKGSDFRQVLHQLKYGGQKEIGAIMGRYMASELQASDFFHGVDVIIPIPLHKKKQQIRGYNQSEWISRGIMAVTGIPVDTEAIIRRKNTETQTQKSALERWENVDGIFELHRSEYLAGKHILIVDDVLTTGATTVACASRLAEIEGVRISVLTLAMAE	not soluble
MKSPAPSRPQKMALIPACIFLCFAALSVQAEETPVTPQPPDILLGPLFNDVQNAKLFPDQKTFADAVPNSDPLMILADYRMQQNQSGFDLRHFVNVNFTLPKEGEKYVPPEGQSLREHIDGLWPVLTRSTENTEKWDSLLPLPEPYVVPGGRFREVYYWDSYFTMLGLAESGHWDKVADMVANFAHEIDTYGHIPNGNRSYYLSRSQPPFFALMVELLAQHEGDAALKQYLPQMQKEYAYWMDGVENLQAGQQEKRVVKLQDGTLLNRYWDDRDTPRPESWVEDIATAKSNPNRPATEIYRDLRSAAASGWDFSSRWMDNPQQLNTLRTTSIVPVDLNSLMFKMEKILARASKAAGDNAMANQYETLANARQKGIEKYLWNDQQGWYADYDLKSHKVRNQLTAAALFPLYVNAAAKDRANKMATATKTHLLQPGGLNTTSVKSGQQWDAPNGWAPLQWVATEGLQNYGQKEVAMDISWHFLTNVQHTYDREKKLVEKYDVSTTGTGGGGGEYPLQDGFGWTNGVTLKMLDLICPKEQPCDNVPATRPTVKSATTQPSTKEAQPTPLEHHHHHH	soluble
GIPKCPEDWGASSRTSLCFKLYAKGKHEKKTWFESRDFCRALGGDLASINNKEEQQTIWRLITASGSYHKLFWLGLTYGSPSEGFTWSDGSPVSYENWAYGEPNNYQNVEYCGELKGDPTMSWNDINCEHLNNWICQIQKGQTPKPD	soluble
GMDGASEIELVFRPHPTLMEKDDSAQTRYIKTSGNATVDHLSKYLAVRLALEELRSKGESNQMNLDTASEKQYTIYIATASGQFTVLNGSFSLELVSEKYWKVNKPMELYYA	soluble
MQVFIMRHGDAALDAASDSVRPLTTNGCDESRLMANWLKGQKVEIERVLVSPFLRAEQTLEEVGDCLNLPSSAEVLPELTPCGDVGLVSAYLQALTNEGVASVLVISHLPLVGYLVAELCPGETPPMFTTSAIASVTLDESGKGEFNWQMSPCNLKMAKAI	soluble
MLYNKSSFCLWKETIVPIILDSDVLEVAEYVYKTRLSQPYTEVGSEWEYNYKNPTATFAKGDGHNLQRYITIDGKQLHRPIHGLAHTMRTLMYSQLMYCSSKKQPSPHVCQDGRTIADLSELDLKKINIAQLFFVAGRESEASYGDAYHRYHLYGAKQFEEYARKHLTHLFSEEEIRLYSRCIEDRVGDSFDGTPEGYIIHLSHMIDLMRCKSPVEVFLGHSKGVSGIVPTLIHLFGKQDGLDIMHYARGLFAATGEAVPYIDSSEWPHLGVDLSRVQRALSIVGDINVPGQEADSKKTAQAGFSVDGCYSALTSVPTPSWYEKELKEIDDEKIDVKEVDDREIEKEHEIVVPSQATTPLSTVKTDSFVEKLLKPFMIWKKPEVQTTQPTTEKTNKP	not soluble
STEKEKMIAGELYRSADETLSRDRLRARQLIHRYNHSLAEEHTLRQQILADLFGQVTEAYIEPTFRCDYGYNIFLGNNFFANFDCVMLDVCPIRIGDNCMLAPGVHIYTATHPIDPVARNSGAELGKPVTIGNNVWIGGRAVINPGVTIGDNVVVASGAVVTKDVPDNVVVGGNPARIIKKL	soluble
MGSDKIHHHHHHMRIAVIGGGASGMVTAYLLDKQGHHITVFERQPMLGGHIRTLNKNVKPNQSDCNEMLESGVLEFPTVFHNFVALMQELGVELEPIRVGSALFPKDGSPFFSKVTNENNYTGIQRFIEYLRFDTIHTRSLGLWLKTRFAQMEDFYNRPLSQYVNNQSISNTWLKLLTMYSYSMPFELIDNFPAEMGIPMLRDYLAVKWLRIKGGVYSYIEKILERFQGEVLLNVEIVNISRSPDGVIIQRSHGEIQEFDKVVFATPPDQVIALLADPTEAEIKRFSDWKANYATTTIHTDIFMYDHHHIHHPSEFDFFQTDTQWGYNSCLNQLCGISSPQHYFLSFQLEELIAKDRIIHTQEHHTPLYTTESFRYRDEVVATNGENNTYYAGAYLGDGLHEGAIASAFRVAQLIGSPLAVSISGFNDRNADTVEIAADTAGIGKYLTHPRFHRS	not soluble
MGSDKIHHHHHHMDAPSRSHLASPILVANYRSLPSFMYRDSLPEAAVSPQLLALNTRLLETLEQDLAWFNSSDALEQLSGKTYYGSNLPFALAYSGHQFGGWSPVLGDGRAHVLGQLKTAADELIDVQLKGSGATPFSRGGDGRATLGAVIREYLLSEAMAGLNISTTGSLAVIATGEDVWRNGAYPGAILVRTAKSHLRVGSFQYAAVHQGPEAVKTLADFALAQYYPELSHDENPYQALLAQVIKGQAELVAQWMLVGFIHGVMNTDNSSITGETIDYGPCAFMDEFNPNKVFSSIDSQGRYAWGNQGAIAQWNMARLGETLLPLLDSDEAKALEIAQAQLGDFNRLFAEHFYQGMARKLSLDASDPELIPFVDSTLQLMTNTRVDFCQFFNALTEYHSTHREQDAGLVALFSTEAFPSLSSTPAQLLQDWLSQWQAKACDSQAALAAMIKANPKFIARNHKVEAAISAAEQNNDYSLFLDMARVLANPYVLAEQDKHYQDAPTPDQRVKQTFCGT	not soluble
MSLQQPLAYRMRPRTIDEVVGQQHLVGEGKIIRRMVDARMLSSMILYGPPGTGKTSIASAIAGSTNYAFRMLNAATDSKKDLQVVAEEAKMSGTVILLLDEVHRLDKTKQDFLLPHLESGRIILIGATTENPYITINPAIRSRTQIFEVKPLTEQDIQLAVEHALRDKERGLGQQAIQLDEDALLHLSRATNGDLRSALNGLELATLSTPSDKEGRIHLTLSIIEECVQRKALTHDKNGDAHYDVISAFQKSIRGSDVDAALHYLARLVEAGDLASICRRLMVIGYEDIGLGNPAAAARTVNAVLAAEKLGLPEARIPLADVVVDLCLSPKSNSAYMALDAALADIREGKAGDVPDHLRDSHYKGAKSLNRGVGYQYPHHFDQAWVNQQYLPDKLKNAQYYQPKDTGKYEQALGQQYYRIKEWKEGHHHHHH	soluble
MGDITNEMIWQAIKELAEQLQQTNGQVQQLSQQVQQTNEQVQQLGQQIQHLNSQVQQLNHQVQQTHEQVGQLAKQVQQTNEQLNQLSQQVADMDKRLTDVANGQNILVEELFENKKEIKRVKTALNMY	not soluble
MTYKYNCCDDGSGTTVGSVVRFDNVTLLIDPGWNPSKVSYEQCIKYWEKVIPEIDVIILSQPTIECLGAHSLLYYNFTSHFISRIQVYATLPVINLGRVSTIDSYASAGVIGPYDTNKLDLEDIEISFDHIVPLKYSQLVDLRSRYDGLTLLAYNAGVCPGGSIWCISTYSEKLVYAKRWNHTRDNILNAASILDATGKPLSTLMRPSAIITTLDRFGSSQPFKKRSKIFKDTLKKGLSSDGSVIIPVDMSGKFLDLFTQVHELLFESTKINAHTQVPVLILSYARGRTLTYAKSMLEWLSPSLLKTWENRNNTSPFEIGSRIKIIAPNELSKYPGSKICFVSEVGALINEVIIKVGNSEKTTLILTKPSFECASSLDKILEIVEQDERNWKTFPEDGKSFLCDNYISIDTIKEEPLSKEETEAFKVQLKEKKRDRNKKILLVKRESKKLANGNAIIDDTNGERAMRNQDILVENVNGVPPIDHIMGGDEDDDEEEENDNLLNLLKDNSEKSAAKKNTEVPVDIIIQPSAASKHKMFPFNPAKIKKDDYGTVVDFTMFLPDDSDNVNQNSRKRPLKDGAKTTSPVNEEDNKNEEEDGYNMSDPISKRSKHRASRYSGFSGTGEAENFDNLDYLKIDKTLSKRTISTVNVQLKCSVVILNLQSLVDQRSASIIWPSLKSRKIVLSAPKQIQNEEITAKLIKKNIEVVNMPLNKIVEFS	soluble
MGSDKIHHHHHHMKRSKYQLGRIGRLTIDRIVSIGAYLDGGDTDILLPNRYLPSDAAPGMEVEVFVYHDNEGRLIATTMRPLVEVGQVALLHAVSVTDSGAYMEWGIHKDLFVPFREQTQLIREGGRYFVYAYIDHVSGKIVGSAKLSKHLGNIPPSYSPGDKVSALVYERIDPGYRMIVDHTHWGMIYSDTLPMPLAIGAQVKAFVIRLRDDGKIDLSLKPIGYDRIDSESERLLHMLQRRGGRLPIGDKSSPEEIMQHTGMSKKTFKMAVGMLYRRRLIRITPTAITLNETVSTPEA	not soluble
MAHHHHHHMAYLPPNMAERLQMSSSSTEPTTTSSMLPAPHSSANMRHIEGLVVVPGVVKVSRSDVASQYTMPHTNNAPLLFSEPEHRAVDNSSGSNDAQLEPKDPHLGLMPHCLSCTLLTSAGAQEPDDVYGRSMPSSSAVGAVTTELECAVVPTLHASFTPGVSTSIMPAPTEAHSACGSRPLQQPRWGGNYDSGSQCVSFRGADRSNNVSGCGLRLVGDDVEWLQGSFEDSASSPREEVQLSWGHLQRQPCAGKSSAARAVPPALHDVREGTGGEKVLAAHHRFERAVQPQTQRQGVFPSADQENCQAAAMLWAAQQMAVFD	not soluble
VDIYASMTPAKDVGGDFYDFFQIDDERIGLVIADVSGKGVPASLFMAVSRTLLRATALRGVSSAECLTYANKLLCKESLDSMFVTVFYGIYHYKTGMMDYTNAGHNPPYLLRGGRTVECLPVASNFVVGVFDDIEFESNTLTFGIGDTLLLYTDGVTEAFNDKREQFSESNLQDILASMHESSSAKEVVTSVLQSVKTFSGDYPQSDDITLLSLQRIK	not soluble
